# According to publication PMC11381880, “Action and cooperation in alginate degradation by three enzymes from the human gut bacterium Bacteroides eggerthii DSM 20697” (The Journal of Biological Chemistry, 2024):
# Where “and” joins values, the source holds several entries; their conditions need not be identical. Equal entries are not always repeated.
# What was measured:
# [1] = target: T1, BeKdgF (Bacteroides eggerthii, UniProt A0A380Z821); assay: loss of absorbance at […] nm, Michaelis-Menten fit, spontaneous conversion subtracted; assay type: biochemical; settings: 50 mM HEPES, 150 mM NaCl, pH 7.0; 20 nM enzyme, no metal added; saturation not achieved (estimate); substrate made from polyM by BePL17
# T1 construct: gene DW701_08695; no signal peptide; theoretical mass 14,137 Da; locus tag BACEGG_03250 inferred from gene order in PUL BACEGG_03245-03254 (PL17 = BACEGG_03249)
# T1 sequence (A0A380Z821 1-114): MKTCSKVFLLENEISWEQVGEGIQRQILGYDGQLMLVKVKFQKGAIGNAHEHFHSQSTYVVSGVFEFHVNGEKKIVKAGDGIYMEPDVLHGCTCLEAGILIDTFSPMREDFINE
# [2] = system: Asp110; assay: NMR; settings: 25 °C; 25 mM NaCl; 20 mM HEPES (starting pH 7.2), pH adjusted with HCl/NaOH; Folded recombinant BeKdgF as purified, 0.26 mM, no substrate or ligand added; metal loading not given
# [3] = system: Asp102; assay: NMR; settings: 25 °C; 25 mM NaCl; 20 mM HEPES (starting pH 7.2), pH adjusted with HCl/NaOH; Folded recombinant BeKdgF as purified, 0.26 mM, no substrate or ligand added; metal loading not given
# [4] = system: Glu114; assay: NMR; settings: 25 °C; 25 mM NaCl; 20 mM HEPES (starting pH 7.2), pH adjusted with HCl/NaOH; Folded recombinant BeKdgF as purified, 0.26 mM, no substrate or ligand added; metal loading not given
# [5] = system: Glu17; assay: NMR; settings: 25 °C; 25 mM NaCl; 20 mM HEPES (starting pH 7.2), pH adjusted with HCl/NaOH; Folded recombinant BeKdgF as purified, 0.26 mM, no substrate or ligand added; metal loading not given
# [6] = system: Glu66; assay: NMR; settings: 25 °C; 25 mM NaCl; 20 mM HEPES (starting pH 7.2), pH adjusted with HCl/NaOH; Folded recombinant BeKdgF as purified, 0.26 mM, no substrate or ligand added; metal loading not given
# [7] = system: Asp21; assay: NMR; settings: 25 °C; 25 mM NaCl; 20 mM HEPES (starting pH 7.2), pH adjusted with HCl/NaOH; Folded recombinant BeKdgF as purified, 0.26 mM, no substrate or ligand added; metal loading not given
# [8] = system: Glu13; assay: NMR; settings: 25 °C; 25 mM NaCl; 20 mM HEPES (starting pH 7.2), pH adjusted with HCl/NaOH; Folded recombinant BeKdgF as purified, 0.26 mM, no substrate or ligand added; metal loading not given
# [9] = target: BeKdgF, KdgF-like metalloprotein from Bacteroides eggerthii DSM 20697 (Bacteroides eggerthii DSM 20697); assay: SEC-MALS; BeKdgF at 1 mg/mL, 40 ul on Superdex 200 Increase 10/300 GL, 50 mM HEPES, 150 mM NaCl, pH 7.7, ice-cold buffer, 0.5 ml/min; DAWN8+ detector; equilibrium of tetramer and dimer
# [10] = target: BeKdgF, KdgF-like metalloprotein from Bacteroides eggerthii DSM 20697 (Bacteroides eggerthii DSM 20697); assay: NMR 15N relaxation (rotational correlation time from T1/T2); 0.43 mM 13C-15N-labelled BeKdgF, 25 mM Na2HPO4 pH 7.2, 50 mM NaCl, 25 °C, 800 MHz
# [11] = target: BePL17, PL17 subfamily 2 alginate lyase from Bacteroides eggerthii DSM 20697 (Bacteroides eggerthii DSM 20697); assay: SEC; elution on HiLoad Superdex 200 pg 16/600; data not shown
substance,measurement,setting,value
4-deoxy-β-L-threo-hex-4-enopyranuronic acid [compound 1],Km,[1],1.14 ± 0.56 mM
BeKdgF (KdgF-like cupin metalloprotein; annotated Unk3 in PULDB) (Bacteroides eggerthii DSM 20697),pKa,[2],5.5±0.2
same,pKa,[3],5.9 ± 0.1
same,pKa,[4],5.1±0.1 and 5.2±0.1
same,pKa,[5],4.9±0.1
same,pKa,[6],5.6±0.1 and 5.1±0.2
same,pKa,[7],5.0±0.2
same,pKa,[8],5.0 ± 0.2
"BeKdgF, KdgF-like metalloprotein from Bacteroides eggerthii DSM 20697 (enzyme)",percent of the protein as dimer,[9],93.5%
same,percent of the protein as tetramer,[9],6.5%
same,stoichiometry N,[9],4 and 2
same,stoichiometry N,[10],2
"BePL17, PL17 subfamily 2 alginate lyase from Bacteroides eggerthii DSM 20697 (enzyme)",stoichiometry N,[11],2
